A word on the Kd: it is a measure of binding affinity in units of concentration.

Experiment [1] deals with T1, recombinant human Tau monomer, 2N4R isoform (amino acids 2-441) (human, UniProt P10636-8 2-441).
T1 construct: range 2-441; N-terminal His-tag removed with TEV protease; also called monomeric Tau
The experiment is described as follows: SPR; Normalized Rmax post-stress (2 weeks 40 C) / pre-stress. The method, then: (§1) Briefly, IgGs in 1 mL culuture were captured using tip columns that were custom packed with 20 μL MabSelect SuRe resin (Glygen Corp & GE Healthcare). After washing with 1×PBS pH 7.4, IgGs were eluted into 160 μL of 50 mM phosphoric acid pH 3 and neutralized with 12 μL of 20×PBS pH 11. MabSelect SuRe tip columns were stripped in 0.1 M NaOH and regenerated with 1×PBS pH 7.4 for consecutive use of up to 15 times. Purified antibodies in 96-well format were normalized to 0.1 mg/ml using a Hamilton Star liquid handling robot. The “pre-stress” samples were kept at approximately 4° C. and the “post-stress” samples were incubated at 40° C. for two weeks in a PCR machine. Functional stability of the variants was compared by running surface plasmon resonance kinetics experiments with the “pre-stress” and “post-stress” antibody preps. The antibodies were assessed using a human antibody capture CM5 Series S chip generated using the GE Biacore human IgG capture kit and a Biacore T200 instrument. Antibodies diluted to 2 μg/ml were immobilized using a 15 second injection time and 10 μl/min flow rate. Binding to Tau monomer at 0 nM, 26.5 nM and 265 nM, at 25° C., using a flow rate of 40 μl/min, was monitored for a 180 second association phase followed by a 300 second dissociation phase. Samples were run in 10 mM HEPES pH7.4, 150 mM NaCl, 0.05% Tween 20 (HBSP) using a multi-cycle kinetics format. Data was analyzed using BIAevaluation software, fitting a 1:1 binding model. The resulting affinity (KD) values are shown in FIG. 8A-D. A Stability Index was also calculated, using the rationale that affinity-compromised antibodies (due for example to deamidation of key residues) are expected to contribute equally to the IgG capture level (“Ligand Level”) but to contribute less to the measured Tau binding, and that this would be reflected in the experimentally derived value for Rmax. To account for variations in the amount of each antibody captured, Rmax was normalized for the antibody capture level (as measured by “Ligand Level”, Response Units immobilized during antibody capture). Thus Normalized Rmax is calculated as the experimental Rmax (units=RU) divided by the “Ligand Level” (Evaluation output representing the RU captured during the hIgG capture step, units=RU), and Stability Index is calculated here as Normalized Rmax (post-stress) divided by Normalized Rmax (pre-stress).

Experiment [2] deals with T1, recombinant human Tau monomer, 2N4R …. The experiment is described as follows: SPR, captured IgG, Tau monomer analyte, 1:1 model; fit-quality column: Yes. The method, then:
as §1
On the technique in general: SPR reads the build-up and loss of mass on a sensor chip optically.

Positions count from the first letter of the chain named.

T1 sequence (P10636 other isoform, or with tags, fused parts or gaps limits assumed): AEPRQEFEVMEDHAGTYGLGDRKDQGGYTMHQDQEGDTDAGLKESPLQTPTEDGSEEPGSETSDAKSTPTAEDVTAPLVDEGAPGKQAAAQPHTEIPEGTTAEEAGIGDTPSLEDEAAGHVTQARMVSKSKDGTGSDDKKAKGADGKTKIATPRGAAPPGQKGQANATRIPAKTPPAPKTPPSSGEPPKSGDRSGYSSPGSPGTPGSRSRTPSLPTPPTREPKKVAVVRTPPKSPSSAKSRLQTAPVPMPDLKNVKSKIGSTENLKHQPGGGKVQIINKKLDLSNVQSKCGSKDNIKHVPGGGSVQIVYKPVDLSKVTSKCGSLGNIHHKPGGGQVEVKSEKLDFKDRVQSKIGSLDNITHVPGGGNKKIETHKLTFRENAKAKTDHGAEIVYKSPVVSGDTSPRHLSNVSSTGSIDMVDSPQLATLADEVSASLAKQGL

B1: hu37D3.v28.C2 (antibody, V domains shown)
VH: EVQLVESGGGLVQPGGSLRLSCAASGLIFRSYGMSWVRQAPGKGLEWVATINSGGTYTYYPDSVKGRFTISRDNSKNTLYLQMNSLRAEDTAVYYCANSYSGAMDYWGQGTLVTVSS
VL: DDVLTQTPLSLPVTPGQPASISCRSSQSIVHSNDNTYFEWYLQKPGQSPQLLIYKVSNRFSGVPDRFSGSGSGTDFTLKISRVEAEDVGVYYCFQGSLVPWTFGQGTKVEIK
Turning to B1, the “Stability Index” value in experiment [1] was 75%. In experiment [2], the Kd was determined as 9.6 nM.

B2: hu37D3-H9.v30.5 (antibody, V domains shown)
VH: B1 VH
VL: B1 VL with N33I, D34G
With B2, in experiment [1], the “Stability Index” value worked out at 80%. In addition, the dissociation constant (Kd) in experiment [2] stood at 29.1 nM.

B3: hu37D3.v28.A10 (antibody, V domains shown)
VH: B1 VH
VL: B1 VL with L4M, D34G, L98H
For the molecule B3, the “Stability Index” value in experiment [1] was found to be 37%. The Kd in experiment [2] was 41.8 nM.

B4: hu37D3.v28.A18 (antibody, V domains shown)
VH: B1 VH
VL: B1 VL with D2V, D34G, L98H
For B4, the “Stability Index” value in experiment [1] stood at 83%. The Kd in experiment [2] was determined as 17.3 nM.

B5: hu37D3.v28.A8 (antibody, V domains shown)
VH: B1 VH
VL: B1 VL with L4M, D34G
As to B5, the “Stability Index” value in experiment [1] was found to be 57%. Moreover, the dissociation constant Kd in experiment [2] worked out at 1.8 nM.

B6: hu37D3.v28.A14 (antibody, V domains shown)
VH: B1 VH
VL: B1 VL with L4M, D34G, F38L, L98H
Turning to B6, the “Stability Index” value in experiment [1] is 70%. Further, the Kd in experiment [2] amounted to 51.4 nM.

B7: hu37D3.v28.A16 (antibody, V domains shown)
VH: B1 VH
VL: B1 VL with D2V, D34G
For the molecule B7, the “Stability Index” value in experiment [1] is 89%. Besides, in experiment [2], the Kd was determined as 3.9 nM.

B8: hu37D3.v28.E2 (antibody, V domains shown)
VH: B1 VH
VL: B1 VL with H31Q, D34G
B8: in experiment [1], the “Stability Index” value is 28%. Also, in experiment [2], the Kd stood at 22.5 nM.

B9: hu37D3.v29.1 (antibody, V domains shown)
VH: B1 VH
VL: B1 VL with D1E, D34G, N35D
Consider B9, for which the “Stability Index” value in experiment [1] worked out at 70%. The Kd in experiment [2] stood at 13.5 nM.

B10: hu37D3.v29.12 (antibody, V domains shown)
VH: B1 VH
VL: B1 VL with D1E, D34A, N35H
For B10, the “Stability Index” value in experiment [1] turned out to be 50%. Besides, the Kd in experiment [2] amounted to 7 nM.

B11: hu37D3.v28.F3 (antibody, V domains shown)
VH: B1 VH
VL: B1 VL with S32T, D34A
Consider B11, for which the “Stability Index” value in experiment [1] stood at 70%. The Kd in experiment [2] came out at 9.5 nM.

B12: hu37D3.v28.D1 (antibody, V domains shown)
VH: B1 VH
VL: B1 VL with S32A, D34G
In the case of B12, the “Stability Index” value in experiment [1] came out at 73%. For the same molecule, the Kd in experiment [2] stood at 5.7 nM.

B13: hu37D3.v29.11 (antibody, V domains shown)
VH: B1 VH
VL: B1 VL with D1E, D34A, N35A
Consider B13, for which, in experiment [1], the “Stability Index” value amounted to 67%. For the same molecule, in experiment [2], the Kd was determined as 27.9 nM.

B14: hu37D3-H9.v30.10 (antibody, V domains shown)
VH: B1 VH
VL: B1 VL with N33K, D34G
Regarding B14, the “Stability Index” value in experiment [1] came to 84%. Moreover, the Kd in experiment [2] came out at 16.1 nM.

B15: hu37D3.v29.7 (antibody, V domains shown)
VH: B1 VH
VL: B1 VL with D1E, D34G, N35L
As for B15, the “Stability Index” value in experiment [1] worked out at 90%. Moreover, the Kd in experiment [2] was found to be 4.6 nM.

B16: hu37D3.v28.E1 (antibody, V domains shown)
VH: B1 VH
VL: B1 VL with H31N, D34G
In the case of B16, the “Stability Index” value in experiment [1] came to 46%. Moreover, the Kd in experiment [2] was found to be 20.1 nM.

B17: hu37D3-H9.v30.11 (antibody, V domains shown)
VH: B1 VH
VL: B1 VL with N33R, D34G
With B17, the “Stability Index” value in experiment [1] is 86%. In addition, the Kd in experiment [2] amounted to 20.9 nM.

B18: hu37D3.v28.F2 (antibody, V domains shown)
VH: B1 VH
VL: B1 VL with S32T, D34G
Regarding B18, the “Stability Index” value in experiment [1] is 51%. The Kd in experiment [2] worked out at 1.9 nM.

B19: hu37D3.v29.13 (antibody, V domains shown)
VH: B1 VH
VL: B1 VL with D1E, D34A, N35K
With B19, the “Stability Index” value in experiment [1] came to 79%. Moreover, the Kd in experiment [2] is 6.7 nM.

B20: hu37D3.v29.6 (antibody, V domains shown)
VH: B1 VH
VL: B1 VL with D1E, D34G, N35K
For the molecule B20, the “Stability Index” value in experiment [1] turned out to be 62%. Also, the Kd in experiment [2] came out at 1.4 nM.

B21: hu37D3.v29.14 (antibody, V domains shown)
VH: B1 VH
VL: B1 VL with D1E, D34A, N35L
Turning to B21, the “Stability Index” value in experiment [1] came to 92%. The Kd in experiment [2] was found to be 22 nM.

B22: hu37D3.v29.9 (antibody, V domains shown)
VH: B1 VH
VL: B1 VL with D1E, D34A, N35Q
Consider B22, for which, in experiment [1], the “Stability Index” value worked out at 86%. The Kd in experiment [2] amounted to 7.3 nM.

B23: hu37D3-H9.v5.1 (antibody, V domains shown)
VH: B1 VH
VL: B1 VL with D1E, D34A
Regarding B23, the “Stability Index” value in experiment [1] was determined as 72%. For the same molecule, the Kd in experiment [2] was found to be 4 nM.

B24: hu37D3.v29.10 (antibody, V domains shown)
VH: B1 VH
VL: B1 VL with D1E, D34A, N35E
As for B24, the “Stability Index” value in experiment [1] is 100%. Moreover, the Kd in experiment [2] stood at 17.4 nM.

B25: hu37D3.v29.5 (antibody, V domains shown)
VH: B1 VH
VL: B1 VL with D1E, D34G, N35H
B25: in experiment [1], the “Stability Index” value was 64%. In experiment [2], the Kd worked out at 1.4 nM.

B26: hu37D3.v29.4 (antibody, V domains shown)
VH: B1 VH
VL: B1 VL with D1E, D34G, N35A
For B26, in experiment [1], the “Stability Index” value worked out at 76%. The Kd in experiment [2] came to 4.9 nM.

B27: hu37D3.v29.3 (antibody, V domains shown)
VH: B1 VH
VL: B1 VL with D1E, D34G, N35E
Take B27: the “Stability Index” value in experiment [1] worked out at 93%. Moreover, in experiment [2], the Kd was determined as 5.6 nM.

These data come from US20190367592A1 (AC IMMUNE, published 2019).
